A word on the Kd: it is the free concentration of one partner at which half of the binding sites on the other are occupied at equilibrium, for simple one-to-one binding. Usually koff stands for the rate constant with which the complex falls apart. A high value points to a short-lived complex. A word on the kon: it is the second-order rate constant of association.

For one molecule, Kd, koff and kon results are on record in paper PMC9675734, “Phosphorylation disrupts long-distance electron transport in cytochrome c” (Nature Communications, 2022).

The experiment addresses T1, soluble domain of Arabidopsis thaliana cytochrome c1 (Arabidopsis thaliana, UniProt Q9FKS5 64-265).
T1 construct: Hemeprotein; Immobilised on Au(111) through Cys10 (AFM, EC-STM) or by amine coupling on the biochip (SPR); also called Cc1; plant cytochrome Cc1; source: E. coli BL21 (DE3), pET-Cc1 with pEC86 (ccmABCDEFGH), purified (Nuvia Q anion exchange, ENrich SEC 70)
T1 sequence (looked up): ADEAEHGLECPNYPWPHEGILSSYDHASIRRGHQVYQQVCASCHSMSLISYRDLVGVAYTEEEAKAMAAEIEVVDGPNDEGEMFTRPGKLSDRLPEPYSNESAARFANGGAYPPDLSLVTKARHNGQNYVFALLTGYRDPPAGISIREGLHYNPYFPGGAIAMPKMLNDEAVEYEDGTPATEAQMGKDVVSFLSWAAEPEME
The experiment is described as follows: SPR; SPRi; Cc1 immobilised by direct amine coupling on a CS SPRi-Biochip (10 and 15 uM drops); WT or Y48pCMF Cc flowed at 2.5 to 10 uM, 50 uL/min; 298 K; 10 mM sodium phosphate buffer pH 6.5; reference spots with rabbit serum albumin subtracted; 1:1 binding model. The following applies: both partners purified.

B1: Homo sapiens WT cytochrome c (natural protein)
chain: not shown
notes: cytochrome c, human, CYCS gene in plasmid pBTR1-WT; Hemeprotein (heme c attached by the co-expressed heme lyase); Used as analyte in SPR; also called Cc; WT Cc; source: E. coli BL21 (DE3), pBTR1-WT with yeast Cc heme lyase (CYC3), purified (Nuvia S cation exchange)
In turn, B1 displayed a Kd of 527 nM, a koff of 0.00318 s⁻¹ and a kon of 6540 M⁻¹ s⁻¹.
